Target: T1, recombinant PRL-3 (Phosphatase of Regenerating Liver-3) (Homo sapiens, UniProt O75365)
T1 construct: Phosphatase of Regenerating Liver-3 (PRL-3), human cDNA amplified with gene-specific primers and cloned into pSKB3 (NheI/XhoI); also called apo PRL-3; PTP4A family member; source: E. coli One-Shot BL21 Star DE3, purified (Ni-NTA, TEV cleavage, Superdex 200); not shown: 6XHis, N-terminal, cleaved
Experiment: BLI; BLItz; nanobody (626.57 nM) loaded on Anti-Penta-HIS (HIS1K) biosensors; PRL-3 as analyte at six concentrations; association 5 min, dissociation 2 min; 1X kinetics buffer; global fit
Settings: both partners purified

T1 sequence (O75365 1-169): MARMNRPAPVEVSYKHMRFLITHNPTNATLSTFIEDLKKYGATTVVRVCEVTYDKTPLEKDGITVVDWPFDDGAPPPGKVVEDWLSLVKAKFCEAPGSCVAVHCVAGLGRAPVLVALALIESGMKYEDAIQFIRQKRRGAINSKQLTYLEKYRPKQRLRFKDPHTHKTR

Binder	Kd	koff	kon
anti-PRL-3 nanobody 26 (VHH, also called NB 26; nanobody 26-His; source: E. coli One-Shot BL21 Star DE3 (pMES4), purified (Ni-NTA, Superdex 200); not shown: 6XHis, C-terminal, kept) VHH: QVQLQESGGGLVQPGGSLKLSCVVTGLHYYTEGWFRQAPGKEREGVSCISSSDGRTDYIDSVKGRFTISEDNDNKTVYLQMNTLKPDDTGVYYCVAERGPRGSTWWETYDYWGQGTHVTVSS	28.9 nM	0.000127 s⁻¹	4380 M⁻¹ s⁻¹
anti-PRL-3 nanobody 4 (VHH, also called NB 4; source: E. coli One-Shot BL21 Star DE3 (pMES4), purified (Ni-NTA, Superdex 200); not shown: 6XHis, C-terminal, kept) VHH: QVQLQESGGGLVQTGGSLRLSCAASQSTYNFDVMGWYRLAPGKQREFLTSITNGGNIYYADSVKGRFTIARDDSKTTMYLEMNSLKPEDTAVYTCYGQTHKPRVTTSWGQGTQVTVSS	202 nM	0.000565 s⁻¹	2750 M⁻¹ s⁻¹
anti-PRL-3 nanobody 91 (VHH, 91 is its standard; also called NB 91; nanobody 91-His; source: E. coli One-Shot BL21 Star DE3 (pMES4), purified (Ni-NTA, Superdex 200); not shown: 6XHis, C-terminal, kept) VHH: QVQLQESGGGLVQTGGSLRLSCAASQSTFNFDVMGWYRLAPGKQREFLTSITNGGNIYYADSVKGRFTIARDDSKTTMYLEMNSLKPEDTAVYTCYGQTHKPRVTTSWGQGTQVTVSS	203 nM	0.00139 s⁻¹	6880 M⁻¹ s⁻¹
anti-PRL-3 nanobody 16 (VHH, also called NB 16; source: E. coli One-Shot BL21 Star DE3 (pMES4), purified (Ni-NTA, Superdex 200); not shown: 6XHis, C-terminal, kept) VHH: QVQLQESGGGLVQTGGSLRLSCAASQSTFNFDVMGWYRLAPGKQREFLTSITNGGNIYYADSVKGRFTTARDDSKTTMYLEMNSLKPEDTAVYTCYGQTHKPRVTTSWGQGTQVTVSS	299 nM	0.000624 s⁻¹	2090 M⁻¹ s⁻¹
anti-PRL-3 nanobody 19 (VHH, also called NB 19; source: E. coli One-Shot BL21 Star DE3 (pMES4), purified (Ni-NTA, Superdex 200); not shown: 6XHis, C-terminal, kept) VHH: QVQLQESGGGLVQAGGSLGLSCAASRSIFNFKVMGWYRQAPGKQRELVASITNSDNTYYADSVKGRFTISREDAKTTMYLEMNSLKPEDTAVYRCYGQNWGLRATTYWGQGTQVTVSS	98.4 nM	0.000386 s⁻¹	3920 M⁻¹ s⁻¹
anti-PRL-3 nanobody 84 (VHH, also called NB 84; source: E. coli One-Shot BL21 Star DE3 (pMES4), purified (Ni-NTA, Superdex 200); not shown: 6XHis, C-terminal, kept) VHH: QVQLQESGGGLVQAGGSLGLSCAASRSIFNFKVMGWYRQAPGKQRELVASITNSDNTYYADSVKGRFTISREDAKTTMYLEMNSLKPEDTTVYRCYGQNWGLRATTYWGQGTQVTVSS	101 nM	0.000332 s⁻¹	3280 M⁻¹ s⁻¹

Source: PMC10204944, “Development and characterization of nanobodies that specifically target the oncogenic Phosphatase of Regenerating Liver-3 (PRL-3) and impact its interaction with a known binding partner, CNNM3” (PLOS ONE, 2023)
